Key:
[1] = molecular target: WT/WT nucleosome (Xenopus laevis histone octamer with intact acidic patches on Widom 601 DNA) (Xenopus laevis); assay: cryo-EM structure; biotinylated ALC1 linker peptide at 10-fold molar excess over core nucleosomes (no linker DNA), cross-linked with 0.05% glutaraldehyde, purified on monomeric avidin; 15 mM HEPES pH 7.5, 50 mM NaCl, 1 mM DTT
[2] = molecular target: WT/WT nucleosome (Xenopus laevis histone octamer with intact acidic patches on Widom 601 DNA) (Xenopus laevis)
[3] = molecular target: WT/WT nucleosome (Xenopus laevis histone octamer with intact acidic patches on Widom 601 DNA) (Xenopus laevis); remark: listed apart in the source
[4] = tested on: T1, ALC1RLS peptide-TAMRA (Homo sapiens); assay: fluorescence anisotropy; settings: Fluorescence anisotropy: 15 mM HEPES pH 7.5, 1 mM EDTA, 5% glycerol, 1 mM DTT, 10 nM peptide, 30 C
T1 sequence: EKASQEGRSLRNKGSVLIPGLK

[5] = molecular target: ALC1^RLS peptide-TAMRA (human); assay: fluorescence polarisation; fluorescence anisotropy; 10 nM TAMRA-labelled peptide, nucleosomes without linker DNA titrated; 30°C; 15 mM HEPES pH 7.5, 1 mM EDTA, 5% glycerol, 1 mM DTT; quadratic fit

ALC1 linker peptide-Biotin
stoichiometry N (peptides per nucleosome) [1]: 2

ALC1^fl R611A/S612A/R860W (human ALC1 16-879) (from UniProt Q86WJ1 16-879) (enzyme)
Michaelis constant of remodeling of WT/WT nucleosomes (10 nM); factor of increase against ALC1^fl R860W [2]: 5.3 fold | maximum rate of remodeling of WT/WT nucleosomes (10 nM); factor of decrease against ALC1^fl R860W [2]: 6.4 fold | nucleosome-stimulated ATPase rate under saturating conditions (Vmax estimated); fold reduction against ALC1^fl R860W [2]: 2 fold | nucleosome-stimulated ATPase rate, 20 μM remodeler, 2 μM WT/WT nucleosomes; fold reduction against ALC1^fl R860W [2]: 2.5 fold | smFRET, average translocation pause duration on WT/WT nucleosomes with 3 bp of linker DNA; fold increase against ALC1^fl R860W [3]: > 4 fold

WT/WT nucleosome 0-601-0
Kd [4]: 1100 nM

WT/WT nucleosome (Xenopus laevis histone octamer with intact acidic patches on Widom 601 DNA) (complex)
Kd [5]: 1100 nM
